Patent publication US20220251222A1 (Johns Hopkins, published 2022)

T1: IL-6R on IL-6-responsive HepG2 cells (UniProt P08887 20-468, limits assumed)
T1 sequence (looked up): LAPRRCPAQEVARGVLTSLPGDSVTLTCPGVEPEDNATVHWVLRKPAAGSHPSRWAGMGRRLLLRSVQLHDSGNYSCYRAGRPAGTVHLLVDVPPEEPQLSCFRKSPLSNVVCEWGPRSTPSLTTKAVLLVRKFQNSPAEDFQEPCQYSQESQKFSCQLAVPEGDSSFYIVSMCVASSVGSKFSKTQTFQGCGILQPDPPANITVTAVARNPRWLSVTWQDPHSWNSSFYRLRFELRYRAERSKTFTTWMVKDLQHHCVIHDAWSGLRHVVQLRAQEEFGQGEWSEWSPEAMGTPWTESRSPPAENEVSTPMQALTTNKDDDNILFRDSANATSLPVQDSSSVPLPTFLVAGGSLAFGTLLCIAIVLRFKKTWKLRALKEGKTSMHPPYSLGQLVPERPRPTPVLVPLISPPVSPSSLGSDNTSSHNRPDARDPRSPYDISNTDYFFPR

T2: IL-6Rα expressed on lentivirally transduced HEK 293T cells (UniProt P08887 20-468, limits assumed)
T2 construct: whole, on cells; also called IL-6Rα^+ cells; IL-6Rα^+/IL-8R^- HEK 293T cells
T2 sequence (looked up): T1 sequence (looked up)

T3: human IL-6Rα extracellular domain (ECD), residues 89-303 of the mature protein, with C-terminal biotin … (human, UniProt P08887 108-322, biotinylated with BirA ligase on the biotin acceptor peptide)
T3 construct: range 89-303; The range 89-303 counts on the mature protein, not on the precursor; Any linkers between the ECD, BAP and His tag are not described; also called IL-6Rα ECD; recombinant IL-6Rα
T3 sequence: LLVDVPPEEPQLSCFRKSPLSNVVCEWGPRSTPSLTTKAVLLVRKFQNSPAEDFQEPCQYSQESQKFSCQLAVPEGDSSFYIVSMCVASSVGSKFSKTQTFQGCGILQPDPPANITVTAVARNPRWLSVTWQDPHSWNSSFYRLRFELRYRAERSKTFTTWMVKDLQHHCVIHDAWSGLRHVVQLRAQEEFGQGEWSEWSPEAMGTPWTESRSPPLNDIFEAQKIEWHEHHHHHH

B1: tocilizumab, recombinant monoclonal hIgG1 (anti-IL-6Rα) (antibody, V domains shown)
VH: EVQLQESGPGLVRPSQTLSLTCTVSGYSITSDHAWSWVRQPPGRGLEWIGYISYSGITTYNPSLKSRVTMLRDTSKNQFSLRLSSVTAADTAVYYCARSLARTTAMDYWGQGSLVTVSS
VL: DIQMTQSPSSLSASVGDRVTITCRASQDISSYLNWYQQKPGKAPKLLIYYTSRLHSGVPSRFSGSGSGTDFTFTISSLQPEDIATYYCQQGNTLPYTFGQGTKVEIK
notes: also called anti-IL-6Rα antibody
B2: BS2 bispecific antibody (scFv-IgG fusion: 10H2 IgG with tocilizumab scFv on the light chains) (bispecific antibody)
heavy: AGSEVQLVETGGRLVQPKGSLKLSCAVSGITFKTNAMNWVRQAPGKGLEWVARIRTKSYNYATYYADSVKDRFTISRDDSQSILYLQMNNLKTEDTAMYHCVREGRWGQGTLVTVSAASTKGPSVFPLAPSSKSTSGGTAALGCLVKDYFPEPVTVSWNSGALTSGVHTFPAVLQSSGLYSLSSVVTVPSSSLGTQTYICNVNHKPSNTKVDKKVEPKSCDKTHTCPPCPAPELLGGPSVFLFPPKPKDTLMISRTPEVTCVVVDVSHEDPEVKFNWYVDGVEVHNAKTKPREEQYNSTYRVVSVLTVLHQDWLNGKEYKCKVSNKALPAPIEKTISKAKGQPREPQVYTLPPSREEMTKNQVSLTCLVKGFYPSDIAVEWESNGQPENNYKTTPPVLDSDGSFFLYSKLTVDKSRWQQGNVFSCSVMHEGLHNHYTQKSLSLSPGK
light: AGSQAVVTQESALTTSPGETVTLTCRSSTGAVTTSNYANWVQEKPDHLFTGLIGGTNNRPPGVPARFSGSLIGDKAALTITGAQIEDEAIYFCALWYSNHLVFGGGTKLTVLRTVAAPSVFIFPPSDEQLKSGTASVVCLLNNFYPREAKVQWKVDNALQSGNSQESVTEQDSKDSTYSLSSTLTLSKADYEKHKVYACEVTHQGLSSPVTKSFNRGECGGGGSGGGGSEVQLQESGPGLVRPSQTLSLTCTVSGYSITSDHAWSWVRQPPGRGLEWIGYISYSGITTYNPSLKSRVTMLRDTSKNQFSLRLSSVTAADTAVYYCARSLARTTAMDYWGQGSLVTVSSGGGGSGGGGSGGGGSDIQMTQSPSSLSASVGDRVTITCRASQDISSYLNWYQQKPGKAPKLLIYYTSRLHSGVPSRFSGSGSGTDFTFTISSLQPEDIATYYCQQGNTLPYTFGQGTKVEIK
notes: Human IgG1-based

Experiments:
[1] = molecular target: T1, IL-6R on IL-6-responsive HepG2 cells; test: cell-based or functional assay
[2] = molecular target: T2, IL-6Rα expressed on lentivirally …; test: competition with 100 nM biotinylated IL-6 on IL-6Rα+/IL-8R- HEK 293T cells, flow cytometry
Procedure: IL-6Rα⁺/IL-8R⁻ and IL-6Rα⁻/IL-8R⁺ HEK 293T cells were cultured as previously described, and were trypsinized, resuspended in PBSA, and aliquoted into 96-well plates (2×10⁵ cells per well). IL-6Rα⁺/IL-8R⁻ 293T cells were incubated with titrations of various monoclonal or bispecific antibodies in the presence of saturating concentration of biotinylated IL-6 (100 nM) (Acro Biosystem, cat #: IL6-H8218-25UG) for 2 hr at 4° C. with rotation. Cells were then washed and incubated with 1:200 dilution of Alexa Fluor 647-conjugated streptavidin (Fisher Scientific, cat #: S21374) in PBSA for 15 min at 4° C. After a final wash, cells were resuspended in PBSA and analyzed on a CytoFLEX flow cytometer (Beckman Coulter). Curves were fitted to a first-order logistic model and IC₅₀ values were calculated using GraphPad Prism data analysis software. Mean fluorescence intensity (MFI) of unstimulated cells was subtracted. Similarly, IL-6Rα⁻/IL-8R⁺ 293T cells were incubated with titrations of various monoclonal or bispecific antibodies with saturating concentration of His-tagged IL-8 (400 nM) (Sino Biological, cat #: 10098-H08Y-100) for 2 hr at 4° C. with rotation. […] After a final wash, cells were resuspended in PBSA and analyzed on a CytoFLEX flow cytometer (Beckman Coulter). Curves were fitted to a first-order logistic model and IC₅₀ values were calculated using GraphPad Prism data analysis software. […]

[3] = molecular target: T3, human IL-6Rα extracellular domain …; test: competition: antibody against 300 nM biotinylated IL-6Rα ECD binding to IL-6-displaying yeast, flow cytometry
Procedure: Approximately 1×10⁵ human IL-6-displaying yeast per well were plated in a 96-well plate and washed with PBSA. Yeast cells were incubated with saturating concentrations of biotinylated human IL-6Rα (300 nM) and serial dilutions of unlabeled competitor antibody (either the anti-IL-6R antibody tocilizumab, the anti-IL-8R antibody 10H2, BS1, or BS2) in PBSA for 2 hours at room temperature. Cells were then washed and stained with a 1:200 dilution of Alexa647-conjugated streptavidin (Thermo) in PBSA for 15 min at 4° C. Cells were washed again and assessed for human IL-6Rα binding on a CytoFLEX flow cytometer (Beckman Coulter). Background-subtracted fluorescent signal as a fraction of receptor subunit binding in the absence of competitor antibody was plotted. Curves were fitted to a first order logistic model and half maximal inhibitory concentrations (IC₅₀s) were computed using GraphPad Prism. Assays were performed in triplicate and repeated two times with consistent results.
Tocilizumab is known to compete with IL-6 for IL-6Rα engagement. Thus, bispecific binding agents containing the tocilizumab variable regions (BS1 and BS2) were also expected to obstruct cytokine binding. […] However, tocilizumab (IC₅₀=59 nM), BS1 (IC₅₀=190 nM), and BS2 (IC₅₀=78 nM) all inhibited IL-6/IL-6Rα binding.

Row | Binder | inhibition of IL-6 signaling (pSTAT3) in HepG2 cells (IC50) [1] [nM] | IC50 [2] [nM] | IC50 [3] [nM] | inhibition of IL-6-induced STAT3 phosphorylation in HepG2 cells (IC50) [1] [nM]
1 | B1 | 76 | 30 | 59 | 
2 | B2 |  | 96 | 78 | 220
